{"source": "patent US6682891B2", "about": "“Methods of identifying nucleic acid sequences encoding plant riboflavin synthase enzymes” (E. I. du Pont de Nemours and Company, priority 1997, dated 2004)", "key": {"B. subtilis RS": {"target": "T1, B. subtilis RS (Bacillus subtilis, UniProt P16440)", "T1 sequence (P16440 whole entry, looked up)": "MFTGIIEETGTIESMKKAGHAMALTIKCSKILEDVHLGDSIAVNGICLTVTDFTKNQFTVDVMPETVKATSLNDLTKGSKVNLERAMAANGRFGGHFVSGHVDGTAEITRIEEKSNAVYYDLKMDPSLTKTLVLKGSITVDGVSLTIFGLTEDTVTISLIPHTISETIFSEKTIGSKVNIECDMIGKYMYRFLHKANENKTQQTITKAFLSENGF", "settings": "37° C.; cited from earlier work"}, "B. subtilis LS": {"target": "T2, B. subtilis LS (Bacillus subtilis, UniProt P11998)", "T2 sequence (P11998 whole entry, looked up)": "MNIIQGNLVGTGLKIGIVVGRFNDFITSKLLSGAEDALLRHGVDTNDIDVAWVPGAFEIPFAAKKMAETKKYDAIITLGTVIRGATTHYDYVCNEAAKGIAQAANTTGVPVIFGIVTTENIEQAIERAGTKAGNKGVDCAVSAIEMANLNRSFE", "settings": "37° C.; cited from earlier work"}, "yeast LS": {"target": "yeast LS (Saccharomyces cerevisiae, UniProt P50861)", "settings": "37° C.; cited from earlier work"}, "E. coli LS": {"target": "E. coli LS (Escherichia coli, UniProt P61714)", "settings": "37° C.; cited from earlier work"}, "S. cerevisiae RS": {"target": "T3, S. cerevisiae RS (Saccharomyces cerevisiae, UniProt P38145)", "T3 sequence (P38145 1-238)": "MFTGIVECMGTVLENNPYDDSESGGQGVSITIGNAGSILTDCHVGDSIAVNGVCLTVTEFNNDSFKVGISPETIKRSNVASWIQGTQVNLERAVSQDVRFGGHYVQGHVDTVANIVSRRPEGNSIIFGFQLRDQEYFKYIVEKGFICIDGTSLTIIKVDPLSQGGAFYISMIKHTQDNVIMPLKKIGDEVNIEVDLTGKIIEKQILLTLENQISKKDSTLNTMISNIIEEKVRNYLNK", "settings": "37° C.; cited from earlier work"}, "[1]": {"tested_on": "purified recombinant spinach RS", "test": "Riboflavin synthase assay (riboflavin formation from DMRL, 470 nm)", "type": "biochemical, spinach (Spinacea oleracea)", "settings": "25° C., based on protomer", "experimental": "Riboflavin synthase assays were run using 1-mL reaction mixtures containing 0.1 mM DMRL in 50 mM Tris-Cl (pH 7.5) at 25° C. Reactions were initiated by the addition of purified recombinant spinach RS and initial rates of the reactions were measured continuously at 470 nm. A molar extinction coefficient (ε) of 9500 at 470 nm was used to calculate the formation of riboflavin (Plaut, G. W. E. and Harvey, R. A., Methods in Enzymology (McCormick, D. B. and Wright L. D., eds.) vol. 18, part B, pp. 515-538, Academic Press, N.Y. (1971))."}}}
{"molecule": "B. subtilis RS: B. subtilis riboflavin synthase, literature comparison (Bacher et al.) (protein, UniProt P16440 1-215, looked up) Riboflavin synthase: MFTGIIEETGTIESMKKAGHAMALTIKCSKILEDVHLGDSIAVNGICLTVTDFTKNQFTVDVMPETVKATSLNDLTKGSKVNLERAMAANGRFGGHFVSGHVDGTAEITRIEEKSNAVYYDLKMDPSLTKTLVLKGSITVDGVSLTIFGLTEDTVTISLIPHTISETIFSEKTIGSKVNIECDMIGKYMYRFLHKANENKTQQTITKAFLSENGF", "values": [{"measurement": "reported turnover number", "setting": "B. subtilis RS", "result": 0.33, "unit": "s⁻¹"}]}
{"molecule": "B. subtilis LS: purified B. subtilis lumazine synthase, literature comparison (protein, UniProt P11998 1-154, looked up) 6,7-dimethyl-8-ribityllumazine …: MNIIQGNLVGTGLKIGIVVGRFNDFITSKLLSGAEDALLRHGVDTNDIDVAWVPGAFEIPFAAKKMAETKKYDAIITLGTVIRGATTHYDYVCNEAAKGIAQAANTTGVPVIFGIVTTENIEQAIERAGTKAGNKGVDCAVSAIEMANLNRSFE", "values": [{"measurement": "reported turnover number", "setting": "B. subtilis LS", "result": 0.06, "unit": "s⁻¹"}]}
{"molecule": "yeast LS: purified yeast lumazine synthase, literature comparison (protein, UniProt P50861 1-169, looked up) 6,7-dimethyl-8-ribityllumazine …: MAVKGLGKPDQVYDGSKIRVGIIHARWNRVIIDALVKGAIERMASLGVEENNIIIETVPGSYELPWGTKRFVDRQAKLGKPLDVVIPIGVLIKGSTMHFEYISDSTTHALMNLQEKVDMPVIFGLLTCMTEEQALARAGIDEAHSMHNHGEDWGAAAVEMAVKFGKNAF", "values": [{"measurement": "reported turnover number", "setting": "yeast LS", "result": 0.06, "unit": "s⁻¹"}]}
{"molecule": "E. coli LS: purified E. coli lumazine synthase, literature comparison (protein, UniProt P61714 1-156, looked up) 6,7-dimethyl-8-ribityllumazine …: MNIIEANVATPDARVAITIARFNNFINDSLLEGAIDALKRIGQVKDENITVVWVPGAYELPLAAGALAKTGKYDAVIALGTVIRGGTAHFEYVAGGASNGLAHVAQDSEIPVAFGVLTTESIEQAIERAGTKAGNKGAEAALTALEMINVLKAIKA", "values": [{"measurement": "reported turnover number", "setting": "E. coli LS", "result": 0.06, "unit": "s⁻¹"}]}
{"molecule": "S. cerevisiae RS: yeast riboflavin synthase, literature comparison (Santos et al.) (protein, UniProt P38145 1-238, looked up) Riboflavin synthase: MFTGIVECMGTVLENNPYDDSESGGQGVSITIGNAGSILTDCHVGDSIAVNGVCLTVTEFNNDSFKVGISPETIKRSNVASWIQGTQVNLERAVSQDVRFGGHYVQGHVDTVANIVSRRPEGNSIIFGFQLRDQEYFKYIVEKGFICIDGTSLTIIKVDPLSQGGAFYISMIKHTQDNVIMPLKKIGDEVNIEVDLTGKIIEKQILLTLENQISKKDSTLNTMISNIIEEKVRNYLNK", "values": [{"measurement": "reported turnover number", "setting": "S. cerevisiae RS", "result": 0.13, "unit": "s⁻¹"}]}
{"molecule": "recombinant spinach RS: purified recombinant mature spinach riboflavin synthase expressed in E. coli, without transit peptide (SEQ ID NO:8) (protein) MFTGIVEEIGRVKQMGYGEDGGFQLKVVGDIVLKDVNLGDSIAVNGTCLTVTEFDTKASEFTLGIAPETLRKTALMDLEPGSVVNLERALLPSTRMGGHFVQGHVDGTGEIVSLVEEGDSLWVKIKTSPEILRYIVPKGFIAIDGTSLTVVDVFDQELCFNIMLVAYTQQNVVIPLKKVGQKVNLEVDILGKYVERLLSSSGVLDPTKFT", "values": [{"measurement": "turnover number", "setting": "[1]", "result": "approximately 0.08 /sec"}]}
